Measurements reported in the supplement of paper PMC10567573.

B1: MMP1 (parent)
chain: MFFKDRFYMRTNPFYPEVELNFIS

Variants of: B1
Experiment: protein stability index of a GFP-peptide fusion (GPS, HEK-293T) (PSI 1-6); higher = more stable
Conditions: c terminus: a fixed tail appended
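Note: lentivirally expressed fusions sorted by FACS into six bins by GFP to DsRed ratio, PSI derived from sequencing read proportions per bin multiplied by bin number.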

Variant	protein stability index
MFFKDRFYMRTNPFRPEVELNFIS	2.66
MFFKDRFYMRTNPFSPEVELNFIS	2.69
MFFKDRFYMRTNPFTPEVELNFIS	2.43
MFFKDRFYMRTNPFVPEVELNFIS	2.37
MFFKDRFYMRTNPFWPEVELNFIS	2.93
MFFKDRFYMRTNPFYCEVELNFIS	2.71
MFFKDRFYMRTNPFYDEVELNFIS	2.18
MFFKDRFYMRTNPFYEEVELNFIS	3.49
MFFKDRFYMRTNPFYFEVELNFIS	2.88
MFFKDRFYMRTNPFYGEVELNFIS	3.15
MFFKDRFYMRTNPFYHEVELNFIS	2.95
MFFKDRFYMRTNPFYIEVELNFIS	3.59
MFFKDRFYMRTNPFYKEVELNFIS	2.25
MFFKDRFYMRTNPFYLEVELNFIS	1.75
MFFKDRFYMRTNPFYMEVELNFIS	1.74
MFFKDRFYMRTNPFYNEVELNFIS	3.95
MFFKDRFYMRTNPFYQEVELNFIS	3.75
MFFKDRFYMRTNPFYREVELNFIS	1.98
MFFKDRFYMRTNPFYSEVELNFIS	2.96
MFFKDRFYMRTNPFYTEVELNFIS	3.07
MFFKDRFYMRTNPFYVEVELNFIS	3.21
MFFKDRFYMRTNPFYWEVELNFIS	2.44
MFFKDRFYMRTNPFYYEVELNFIS	2.82
MFFKDRFYMRTNPFYPAVELNFIS	2.9

Variant	protein stability index
MFFKDRFYMRTNPFYPCVELNFIS	4.42
MFFKDRFYMRTNPFYPDVELNFIS	1.97
MFFKDRFYMRTNPFYPFVELNFIS	2.19
MFFKDRFYMRTNPFYPGVELNFIS	2.52
MFFKDRFYMRTNPFYPHVELNFIS	3.02
MFFKDRFYMRTNPFYPIVELNFIS	3.71
MFFKDRFYMRTNPFYPKVELNFIS	2.21
MFFKDRFYMRTNPFYPLVELNFIS	2.55
MFFKDRFYMRTNPFYPMVELNFIS	2.78
MFFKDRFYMRTNPFYPNVELNFIS	3.69
MFFKDRFYMRTNPFYPPVELNFIS	1.8
MFFKDRFYMRTNPFYPRVELNFIS	2.57
MFFKDRFYMRTNPFYPSVELNFIS	2.15
MFFKDRFYMRTNPFYPTVELNFIS	1.84
MFFKDRFYMRTNPFYPVVELNFIS	2.99
MFFKDRFYMRTNPFYPWVELNFIS	3.19
MFFKDRFYMRTNPFYPYVELNFIS	2.42
MFFKDRFYMRTNPFYPEAELNFIS	3.25
MFFKDRFYMRTNPFYPECELNFIS	2.99
MFFKDRFYMRTNPFYPEDELNFIS	2.66
MFFKDRFYMRTNPFYPEEELNFIS	3.27
MFFKDRFYMRTNPFYPEFELNFIS	2.61
MFFKDRFYMRTNPFYPEGELNFIS	2.08
MFFKDRFYMRTNPFYPEHELNFIS	3.06

Variant	protein stability index
MFFKDRFYMRTNPFYPEIELNFIS	2.84
MFFKDRFYMRTNPFYPEKELNFIS	3.54
MFFKDRFYMRTNPFYPELELNFIS	2.41
MFFKDRFYMRTNPFYPEMELNFIS	2.52
MFFKDRFYMRTNPFYPENELNFIS	1.78
MFFKDRFYMRTNPFYPEPELNFIS	3.06
MFFKDRFYMRTNPFYPEQELNFIS	2.35
MFFKDRFYMRTNPFYPERELNFIS	1.87
MFFKDRFYMRTNPFYPESELNFIS	3.28
MFFKDRFYMRTNPFYPETELNFIS	3.87
MFFKDRFYMRTNPFYPEWELNFIS	3.22
MFFKDRFYMRTNPFYPEYELNFIS	2.64
MFFKDRFYMRTNPFYPEVALNFIS	3.48
MFFKDRFYMRTNPFYPEVCLNFIS	3.18
MFFKDRFYMRTNPFYPEVDLNFIS	2.34
MFFKDRFYMRTNPFYPEVFLNFIS	3.27
MFFKDRFYMRTNPFYPEVGLNFIS	3.69
MFFKDRFYMRTNPFYPEVHLNFIS	3.47
MFFKDRFYMRTNPFYPEVILNFIS	3.25
MFFKDRFYMRTNPFYPEVKLNFIS	4.43
MFFKDRFYMRTNPFYPEVLLNFIS	2.64
MFFKDRFYMRTNPFYPEVMLNFIS	1.47
MFFKDRFYMRTNPFYPEVNLNFIS	3.6
MFFKDRFYMRTNPFYPEVPLNFIS	3.53

Variant	protein stability index
MFFKDRFYMRTNPFYPEVQLNFIS	2.3
MFFKDRFYMRTNPFYPEVSLNFIS	2.61
MFFKDRFYMRTNPFYPEVTLNFIS	2.44
MFFKDRFYMRTNPFYPEVVLNFIS	2.27
MFFKDRFYMRTNPFYPEVWLNFIS	1.3
MFFKDRFYMRTNPFYPEVYLNFIS	3.1
MFFKDRFYMRTNPFYPEVEANFIS	2.27
MFFKDRFYMRTNPFYPEVECNFIS	3.04
MFFKDRFYMRTNPFYPEVEDNFIS	2.28
MFFKDRFYMRTNPFYPEVEENFIS	3.27
MFFKDRFYMRTNPFYPEVEFNFIS	3.19
MFFKDRFYMRTNPFYPEVEGNFIS	1.59
MFFKDRFYMRTNPFYPEVEHNFIS	2.98
MFFKDRFYMRTNPFYPEVEINFIS	3.27
MFFKDRFYMRTNPFYPEVEKNFIS	3.34
MFFKDRFYMRTNPFYPEVENNFIS	2.06
MFFKDRFYMRTNPFYPEVEPNFIS	1.99
MFFKDRFYMRTNPFYPEVEQNFIS	1.36
MFFKDRFYMRTNPFYPEVERNFIS	2.25
MFFKDRFYMRTNPFYPEVESNFIS	2.35
MFFKDRFYMRTNPFYPEVETNFIS	1.85
MFFKDRFYMRTNPFYPEVEVNFIS	2.11
